Data on 17 compounds can be found in publication PMC3466378 (Journal of immunology (Baltimore, Md. : 1950), 2012).

The target of one test is HLA-DR1 (Homo sapiens, UniProt P01903+P01911, A100R/D57E/F55L/F60I/F76Y/I96L/L162R/M171V/P40L/Q125E/R42F/V115G/Y59C). Briefly: biochemical. Type of test: binding.
Test [1] deals with Soluble recombinant HLA-DR1 (HLA DRB1*0101) (human). Briefly: ELISA. Background: ELISA stands for enzyme-linked immunosorbent assay.
Test [2] has the same target. Briefly: fluorescence polarisation.

Ends that are not written are not given here.

By IC50 is commonly meant the point on the concentration scale where inhibition reaches its midpoint. With `CC[C@H](C)[C@H](NC(=O)[C@H](CO)NC(=O)[C@H](CC(N)=O)NC(=O)[C@H](Cc1ccccc1)NC(=O)[C@@H](NC(=O)[C@@H](N)CC(C)C)C(C)C)C(=O)N[C@@H](CO)C(=O)N[C@@H](C)C(=O)N[C@@H](CCCNC(=N)N)C(=O)N[C@@H](C)C(=O)N[C@@H](CC(C)C)C(=O)N[C@@H](CCCCN)C(=O)N[C@@H](C)C(=O)N[C@@H](Cc1ccc(O)cc1)C(=O)N[C@@H](Cc1ccccc1)C(=O)O` [I1L (8–22)], 15 nM corresponded to half-maximal inhibition at HLA-DR1 (IC50).

For F1L(202–214) (peptide), in test [1], the t1/2DM was found to be 117 h and the t1/2in amounted to 413 h.

Turning to I1L (8–22) (peptide), in test [2], the half-maximal inhibitory concentration (IC50) came to 15 nM. Besides, the t1/2in in test [1] stood at 155 h.

In the case of D5R (315–329) (peptide), the t1/2in in test [1] was determined as 276 h.

`CC[C@H](C)[C@H](NC(=O)[C@H](Cc1ccccc1)NC(=O)[C@H](CC(C)C)NC(=O)[C@H](CC(C)C)NC(=O)[C@H](CO)NC(=O)[C@@H](NC(=O)[C@H](C)N)C(C)C)C(=O)N[C@@H](CCC(N)=O)C(=O)NCC(=O)N[C@@H](Cc1ccc(O)cc1)C(=O)N[C@@H](CO)C(=O)N[C@H](C(=O)N[C@@H](Cc1ccc(O)cc1)C(=O)N[C@@H](CCC(=O)O)C(=O)N[C@@H](CC(N)=O)C(=O)O)[C@@H](C)CC` [A28Ls (15–29)] showed an IC50 on HLA-DR1 of 212 nM.

As to `CC[C@H](C)[C@H](NC(=O)CNC(=O)[C@H](CO)NC(=O)[C@H](CCC(N)=O)NC(=O)[C@H](CC(N)=O)NC(=O)[C@@H](NC(=O)[C@H](Cc1ccccc1)NC(=O)[C@@H]1CCCN1C(=O)[C@@H](N)CCC(=O)O)C(C)C)C(=O)N[C@@H](CCC(=O)O)C(=O)N[C@H](C(=O)N[C@@H](CC(C)C)C(=O)N[C@@H](CC(C)C)C(=O)O)[C@@H](C)CC` [D11L (386–398)], the IC50 against HLA-DR1 was 106 nM.

Compound GRYLVLKAVKVSD [F17R(19–31)] displayed an IC50 against HLA-DR1 of 37 nM.

For the compound A48Rs (41–55) (peptide), the half-inhibitory concentration (IC50) in test [2] came to 44 nM. Besides, in test [1], the t1/2DM came out at 115 h and the t1/2in amounted to 136 h.

`CC[C@H](C)[C@H](NC(=O)[C@H](C)NC(=O)[C@H](CC(C)C)NC(=O)[C@H](CO)NC(=O)[C@H](CC(N)=O)NC(=O)[C@H](CC(C)C)NC(=O)[C@H](Cc1ccccc1)NC(=O)[C@H](CCCNC(=N)N)NC(=O)[C@H](CCSC)NC(=O)[C@H](CC(=O)O)NC(=O)[C@@H](N)Cc1ccccc1)C(=O)N[C@@H](Cc1c[nH]cn1)C(=O)N[C@@H](CCC(=O)O)C(=O)O` [I7L (193–205)] showed an IC50 on HLA-DR1 of 150 nM.

TTQSMNIMESIPANT [A48Rs (41–55)]: half-maximal inhibition against HLA-DR1 (IC50) required 44 nM.

As for I4L (71–85) (peptide), in test [1], the t1/2in turned out to be 278 h.

Consider `CC[C@H](C)[C@H](NC(=O)[C@@H]1CCCN1C(=O)[C@H](CO)NC(=O)CNC(=O)[C@H](CC(=O)O)NC(=O)[C@H](CC(C)C)NC(=O)[C@@H](NC(=O)[C@H](CCCCN)NC(=O)[C@H](Cc1ccccc1)NC(=O)CNC(=O)[C@H](CC(C)C)NC(=O)[C@@H](N)CO)C(C)C)C(=O)N[C@@H](CO)C(=O)N[C@@H](CC(C)C)C(=O)N[C@@H](CCCNC(=N)N)C(=O)O` [I8R (243–257)], for which the half-maximal inhibitory concentration (IC50) against HLA-DR1 amounted to 17 nM.

Regarding HPDYAILAARIAVSN [I4L (71–85)], the midpoint of inhibition against HLA-DR1, the IC50, lay at 62 nM.

Take D6R (156–170) (peptide): the 50% inhibitory concentration (IC50) in test [2] turned out to be 4 nM. For the same compound, in test [1], the t1/2DM worked out at 219 h and the t1/2in came out at 997 h.

At HLA-DR1, `CC[C@H](C)[C@H](NC(=O)[C@H](CCCNC(=N)N)NC(=O)[C@H](CC(=O)O)NC(=O)[C@@H](NC(=O)[C@H](CCCCN)NC(=O)[C@@H](NC(=O)[C@H](CO)NC(=O)[C@H](CCC(=O)O)NC(=O)[C@@H](NC(=O)[C@H](Cc1ccc(O)cc1)NC(=O)[C@H](CCSC)NC(=O)[C@H](Cc1ccccc1)NC(=O)[C@H](CO)NC(=O)[C@H](Cc1ccccc1)NC(=O)[C@@H](N)CCCCN)[C@@H](C)CC)[C@@H](C)CC)C(C)C)C(=O)O` [A20R (214–228)] showed an IC50 of 192 nM.

Turning to A28Ls (15–29) (peptide), the IC50 in test [2] stood at 212 nM. In addition, the t1/2in in test [1] came out at 213 h.

With L1R (191–205) (peptide), the IC50 in test [2] was found to be 7360 nM.
